From publication PMC5811407 (Thrombosis research, 2017)
Each block holds one molecule with its values, some of them ahead of it.

What was measured:
[1] = target: soluble form of human VLDL receptor (human) (UniProt P98155); assay: SPR
[2] = target: recombinant fibrinogen (Bβ1-66)2 fragment (human); assay: ELISA
[3] = target: recombinant fibrin (β15-66)2 fragment (human); assay: ELISA
[4] = target: human fibrin (human) (UniProt P02679); assay: ELISA
[5] = target: soluble form of human VLDL receptor (human, UniProt P98155 28-797); assay: ELISA

Kd [1]: 254 nM
Molecule: recombinant fibrinogen (Bβ1-66)2 fragment (domain or fragment)

Kd [2]: 7.7 nM | Kd [3]: 5.9 nM | Kd [4]: 7.2 nM
Molecule: soluble form of human VLDL receptor (from UniProt P98155 28-797)

binding result [5]: binds
B1: human receptor-associated protein (natural protein, UniProt P30533 35-357, looked up)
chain: YSREKNQPKPSPKRESGEEFRMEKLNQLWEKAQRLHLPPVRLAELHADLKIQERDELAWKKLKLDGLDEDGEKEARLIRNLNVILAKYGLDGKKDARQVTSNSLSGTQEDGLDDPRLEKLWHKAKTSGKFSGEELDKLWREFLHHKEKVHEYNVLLETLSRTEEIHENVISPSDLSDIKGSVLHSRHTELKEKLRSINQGLDRLRRVSHQGYSTEAEFEEPRVIDLWDLAQSANLTDKELEAFREELKHFEAKIEKHNHYQKQLEIAHEKLRHAESVGDGERVSRSREKHALLEGRTKELGYTVKKHLQDLSGRISRARHNEL
